This assay concerns the target Avi-GST-CMG2^ABD. Kind of assay: BLI. A general note: In BLI a coated tip is dipped into the sample, and binding shifts an interference pattern.

Regarding “purified actin (polymerized F-actin) (from UniProt P60709 1-375) (natural protein)”, the dissociation constant Kd (in general, the free concentration of one partner at which half of the binding sites on the other are occupied at equilibrium, for simple one-to-one binding) came out at 10 nM.

Values taken from article doi:10.1101/2025.07.21.665964.
